Measured values published in patent US20220098265A1 (MEDIMMUNE LIMITED, priority 2012, published 2022).
Read-outs that look alike come from different tables or passages of the source. Numbered stars: 1 amine (or outer) side, 2 acyl side, 3 side chain; on linkers, the order of the positions; unused ones are H or OH. Side chains are listed from the residue outwards. Ends that are not written are not given here. Peptide text beside a SMILES is read from it. * marks the point of attachment. γGlu = O=C(O)[C@H](CCC(=O)[*:2])N[*:1]; Palmitoyl = CCCCCCCCCCCCCCCC(=O)*

What was measured:
[1] = frozen blank plasma from rat; details: 37° C, up to 48 hours
Human GlucR = Human GlucR (Homo sapiens, UniProt P47871); details: read-out: hGlucR EC50; assay 1; additional peptides (Table 4)
Procedure: All sample dilutions were made in duplicate.
A frozen cryo-vial of cells expressing the receptor of interest was thawed rapidly in a water-bath, transferred to pre-warmed assay media and spun at 240×g for 5 minutes. Cells were re-suspended in assay media at an optimised concentration (e.g. hGCGR cells at 1×10^5 cells/ml, hGLP-1R and hGIPR cells at 0.5×10^5 cells/ml).
To this, 5 μL cell suspension was added and the plates incubated at room temperature for 30 minutes.
cAMP levels were measured using a commercially available cAMP dynamic 2 HTRF kit (Cisbio, Cat #62AM4PEJ), following the two step protocol as per manufacturer's recommendations. In brief; anti-cAMP cryptate (donor fluorophore) and cAMP-d2 (acceptor fluorophore) were made up separately by diluting each 1/20 in conjugate & lysis buffer provided in the kit. 5 μL anti-cAMP cryptate was added to all wells of the assay plate, and 5 μL cAMP-d2 added to all wells except non-specific binding (NSB) wells, to which conjugate and lysis buffer was added.

human serum albumin = human serum albumin (Homo sapiens, UniProt P02768); assay: calculated from the variation in cAMP generation with the HSA concentration (assay 2)
human GLP-1 receptor [2] = molecular target: T1, human GLP-1 receptor (human, UniProt P43220 24-463); assay: cell-based or functional assay
[3] = molecular target: T2, human glucose-dependent insulinotropic peptide (gastric inhibitory polypeptide) receptor (human, UniProt P48546 22-466); assay: cell-based or functional assay
T2 sequence (looked up): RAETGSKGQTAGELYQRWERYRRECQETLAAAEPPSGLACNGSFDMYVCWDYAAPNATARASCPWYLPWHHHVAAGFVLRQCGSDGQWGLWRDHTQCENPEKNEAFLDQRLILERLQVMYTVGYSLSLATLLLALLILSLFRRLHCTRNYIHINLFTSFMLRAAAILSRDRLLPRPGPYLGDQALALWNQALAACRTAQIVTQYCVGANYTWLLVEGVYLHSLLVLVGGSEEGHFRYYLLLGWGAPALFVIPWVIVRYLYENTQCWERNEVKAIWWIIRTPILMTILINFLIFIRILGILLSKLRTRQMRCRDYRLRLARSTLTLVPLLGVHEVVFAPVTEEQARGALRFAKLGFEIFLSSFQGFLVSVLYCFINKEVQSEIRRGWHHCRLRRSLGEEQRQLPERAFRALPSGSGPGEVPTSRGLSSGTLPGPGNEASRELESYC

mouse glucagon receptor = mouse glucagon receptor (mouse, UniProt Q61606 27-485); assay: cell-based or functional assay
human GLP-1 receptor [4] = molecular target: T1, human GLP-1 receptor; assay: cell-based or functional assay; remark: listed apart in the source
mouse GLP-1 receptor = molecular target: T3, mouse GLP-1 receptor (mouse, UniProt O35659 22-463); assay: cell-based or functional assay
T3 sequence (looked up): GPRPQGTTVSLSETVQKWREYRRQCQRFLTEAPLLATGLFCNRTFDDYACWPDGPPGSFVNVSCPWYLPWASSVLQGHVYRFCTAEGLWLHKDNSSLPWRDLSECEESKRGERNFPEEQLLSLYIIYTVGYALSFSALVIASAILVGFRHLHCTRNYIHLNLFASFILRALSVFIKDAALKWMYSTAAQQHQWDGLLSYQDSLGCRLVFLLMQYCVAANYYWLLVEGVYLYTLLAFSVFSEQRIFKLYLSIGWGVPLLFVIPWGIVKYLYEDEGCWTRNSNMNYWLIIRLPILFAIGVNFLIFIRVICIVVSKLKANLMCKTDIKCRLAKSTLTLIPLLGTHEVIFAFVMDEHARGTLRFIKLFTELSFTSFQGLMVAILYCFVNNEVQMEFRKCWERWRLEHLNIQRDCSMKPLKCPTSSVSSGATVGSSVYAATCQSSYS

human glucagon receptor [5] = molecular target: T4, human glucagon receptor (human, UniProt P47871 26-477); assay: cell-based or functional assay
[6] = molecular target: T2, human glucose-dependent insulinotropic …; assay: cell-based or functional assay; remark: listed apart in the source
human glucagon receptor [7] = molecular target: T4, human glucagon receptor; assay: cell-based or functional assay; remark: listed apart in the source
human GLP-1 receptor [8] = molecular target: T1, human GLP-1 receptor; assay: cell-based or functional assay; remark: listed apart in the source
human glucagon receptor [9] = molecular target: T4, human glucagon receptor; assay: cell-based or functional assay; remark: listed apart in the source
human GLP-1 receptor [10] = molecular target: T1, human GLP-1 receptor; assay: cell-based or functional assay; remark: listed apart in the source
human glucagon receptor [11] = molecular target: T4, human glucagon receptor; assay: cell-based or functional assay; remark: listed apart in the source
[12] = molecular target: T2, human glucose-dependent insulinotropic …; assay: cell-based or functional assay; remark: listed apart in the source

T4 sequence (P47871 26-477): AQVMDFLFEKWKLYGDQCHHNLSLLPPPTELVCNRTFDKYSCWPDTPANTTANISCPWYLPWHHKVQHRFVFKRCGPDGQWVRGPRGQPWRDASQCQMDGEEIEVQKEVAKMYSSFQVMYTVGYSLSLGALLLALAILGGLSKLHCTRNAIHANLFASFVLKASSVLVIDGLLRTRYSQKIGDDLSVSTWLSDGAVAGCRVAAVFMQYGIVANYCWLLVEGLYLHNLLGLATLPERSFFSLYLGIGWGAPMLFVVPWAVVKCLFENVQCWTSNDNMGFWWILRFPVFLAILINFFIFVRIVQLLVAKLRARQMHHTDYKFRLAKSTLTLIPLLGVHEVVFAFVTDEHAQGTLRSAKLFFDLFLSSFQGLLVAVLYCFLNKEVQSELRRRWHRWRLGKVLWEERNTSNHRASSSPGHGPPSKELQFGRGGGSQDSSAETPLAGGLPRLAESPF
Human GlucR, sequence (P47871 26-477): as above
human serum albumin, sequence (P02768 25-609 limits assumed): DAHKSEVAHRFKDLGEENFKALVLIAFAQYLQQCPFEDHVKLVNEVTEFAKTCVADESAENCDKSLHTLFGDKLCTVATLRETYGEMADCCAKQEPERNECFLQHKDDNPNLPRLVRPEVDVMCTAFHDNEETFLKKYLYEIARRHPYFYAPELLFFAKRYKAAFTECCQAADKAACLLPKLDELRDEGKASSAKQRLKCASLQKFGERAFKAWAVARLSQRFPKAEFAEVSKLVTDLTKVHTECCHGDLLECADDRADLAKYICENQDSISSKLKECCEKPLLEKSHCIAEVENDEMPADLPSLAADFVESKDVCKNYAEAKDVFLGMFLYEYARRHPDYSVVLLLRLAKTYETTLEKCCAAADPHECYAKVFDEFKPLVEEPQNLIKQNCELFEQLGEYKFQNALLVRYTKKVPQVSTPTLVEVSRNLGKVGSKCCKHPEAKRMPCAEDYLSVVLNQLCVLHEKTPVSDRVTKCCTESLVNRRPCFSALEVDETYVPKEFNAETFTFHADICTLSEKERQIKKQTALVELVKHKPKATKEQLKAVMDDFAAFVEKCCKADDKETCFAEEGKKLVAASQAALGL
mouse glucagon receptor, sequence (Q61606 27-485): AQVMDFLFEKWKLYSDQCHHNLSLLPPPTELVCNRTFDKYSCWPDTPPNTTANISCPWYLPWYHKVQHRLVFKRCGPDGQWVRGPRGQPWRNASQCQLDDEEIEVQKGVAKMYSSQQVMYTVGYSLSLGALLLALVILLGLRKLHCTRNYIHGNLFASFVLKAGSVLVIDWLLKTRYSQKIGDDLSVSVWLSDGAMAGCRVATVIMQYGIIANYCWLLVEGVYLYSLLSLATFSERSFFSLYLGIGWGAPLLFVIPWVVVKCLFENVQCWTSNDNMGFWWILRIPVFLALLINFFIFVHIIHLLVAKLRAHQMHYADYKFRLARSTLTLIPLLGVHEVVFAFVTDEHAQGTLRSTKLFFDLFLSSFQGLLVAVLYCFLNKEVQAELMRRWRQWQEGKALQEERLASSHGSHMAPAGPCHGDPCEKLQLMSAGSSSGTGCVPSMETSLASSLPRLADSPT

HSQGTFTSDXSRYLDSRSARDFVAWLEAGG-amide X10 = K(gE-palm)
fragment found [1]: DPP IV-cleavage product

CCCCCCCCCCCCCCCC(=O)N[C@@H](CCC(=O)NCCCC[C@H](NC(=O)[C@H](CO)NC(=O)[C@H](CC(=O)O)NC(=O)[C@H](CC(C)C)NC(=O)[C@H](Cc1ccc(O)cc1)NC(=O)[C@H](CCCCN)NC(=O)[C@H](CO)NC(=O)[C@H](Cc1ccc(O)cc1)NC(=O)[C@H](CC(=O)O)NC(=O)[C@H](CO)NC(=O)[C@@H](NC(=O)[C@H](Cc1ccccc1)NC(=O)[C@@H](NC(=O)CNC(=O)[C@H](CCC(N)=O)NC(=O)CNC(=O)[C@@H](N)Cc1c[nH]cn1)[C@@H](C)O)[C@@H](C)O)C(=O)N[C@@H](CCCNC(=N)N)C(=O)N[C@@H](C)C(=O)N[C@@H](C)C(=O)N[C@@H](CC(=O)O)C(=O)N[C@@H](Cc1ccccc1)C(=O)N[C@H](C(=O)N[C@@H](C)C(=O)N[C@@H](Cc1c[nH]c2ccccc12)C(=O)N[C@@H](CC(C)C)C(=O)N[C@H](C(=O)N[C@@H](C)C(=O)NCC(=O)NCC(N)=O)C(C)C)C(C)C)C(=O)O [g736] (H-HGQGTFTSDYSKYLDSK([γGlu-Palmitoyl])RAADFVAWLVAGG-NH2; N-terminus assumed)
EC50 (Human GlucR): 0.92 nM

CC(C)C[C@H](NC(=O)[C@H](Cc1ccc(O)cc1)NC(=O)[C@H](CCCCN)NC(=O)[C@H](CO)NC(=O)[C@H](Cc1ccc(O)cc1)NC(=O)[C@H](CC(=O)O)NC(=O)[C@H](CO)NC(=O)[C@@H](NC(=O)[C@H](Cc1ccccc1)NC(=O)[C@@H](NC(=O)CNC(=O)[C@H](CCC(N)=O)NC(=O)[C@H](CO)NC(=O)[C@@H](N)Cc1c[nH]cn1)[C@@H](C)O)[C@@H](C)O)C(=O)N[C@@H](CC(=O)O)C(=O)N[C@@H](CO)C(=O)N[C@@H](CCCNC(=N)N)C(=O)N[C@@H](CCCNC(=N)N)C(=O)N[C@@H](C)C(=O)N[C@@H](CCC(N)=O)C(=O)N[C@@H](CC(=O)O)C(=O)N[C@@H](Cc1ccccc1)C(=O)N[C@H](C(=O)N[C@@H](CCC(N)=O)C(=O)N[C@@H](Cc1c[nH]c2ccccc12)C(=O)N[C@@H](CC(C)C)C(=O)N[C@H](C(=O)N[C@@H](C)C(=O)NCC(=O)NCC(=O)N1CCC[C@H]1C(=O)N[C@@H](CO)C(=O)N[C@@H](CO)C(=O)NCC(=O)N[C@@H](C)C(=O)N1CCC[C@H]1C(=O)N1CCC[C@H]1C(=O)N1CCC[C@H]1C(=O)N[C@@H](CO)C(=O)N[C@@H](CCCCN)C(N)=O)C(C)C)C(C)C [g319] (H-HSQGTFTSDYSKYLDSRRAQDFVQWLVAGGPSSGAPPPSK-NH2; N-terminus assumed)
EC50 (Human GlucR): 0.0104 nM

B1: G849 (peptide)
peptide: HSQGTFTSDKSRYLDSRSARDFVAWLEAGG
modifications: X10 = K(gE-palm); C-terminal amide
free peptide at 4.4% HSA (human serum albumin): 0.48%
cAMP EC50 (assay 1) (human GLP-1 receptor [2]): 0.00907 nM
cAMP EC50 (assay 1) [3]: 17 nM

B2: G380 (peptide)
peptide: HGQGTFTSDYSKYLDSKRAQDFVQWLVAGG
modifications: X17 = K(gE-palm); C-terminal amide
cAMP EC50 (assay 2, 3.2% mouse serum albumin) (mouse glucagon receptor): 576 nM
cAMP EC50 (assay 2, 4.4% human serum albumin) (human GLP-1 receptor [4]): 6.54 nM
cAMP EC50 (assay 2, 3.2% mouse serum albumin) (mouse GLP-1 receptor): 15 nM
cAMP EC50 (assay 2, 4.4% human serum albumin) (human glucagon receptor [5]): 53.6 nM
cAMP EC50 (assay 1) (human GLP-1 receptor [2]): 0.1 nM
cAMP EC50 (assay 1) [6]: 609 nM
cAMP EC50 (assay 1) (human glucagon receptor [7]): 0.362 nM
cAMP EC50 (assay 1) (human GLP-1 receptor [8]): 0.077 nM
cAMP EC50 (assay 1) [3]: 130 nM
cAMP EC50 (assay 1) (human glucagon receptor [9]): 0.217 nM

B3: G796 (peptide)
peptide: HSQGTFTSDKSSYLDSRRARDFVAWLEAGG
modifications: X10 = K(gE-palm); C-terminal amide
cAMP EC50 (assay 2, 3.2% mouse serum albumin) (mouse GLP-1 receptor): 0.13 nM
cAMP EC50 (assay 1) (human GLP-1 receptor [2]): 0.014 nM
cAMP EC50 (assay 1) [3]: 14 nM

B4: G931 (peptide)
peptide: HSQGTFTSDYSKK([γGlu-Palmitoyl])LDSERARDFVAWLVAGG-OH
cAMP EC50 (assay 1) (human GLP-1 receptor [10]): 0.13 nM
cAMP EC50 (assay 1) (human glucagon receptor [11]): 0.0178 nM

B5: G934 (peptide)
peptide: HSQGTFTSDK([γGlu-Palmitoyl])SKYLEGQAAKEFIAWLEKGR-OH
cAMP EC50 (assay 1) (human GLP-1 receptor [10]): 0.018 nM
cAMP EC50 (assay 1) [12]: 3.6 nM
cAMP EC50 (assay 1) (human glucagon receptor [11]): 0.0063 nM

B6: G973 (peptide)
peptide: HSQGTFTSDXSSYLDSRSARDFVAWLEAGG
modifications: X10 = K(gE-palm); C-terminal acid
cAMP EC50 (assay 1) (human GLP-1 receptor [10]): 0.012 nM
cAMP EC50 (assay 1) [12]: 47 nM
cAMP EC50 (assay 1) (human glucagon receptor [11]): 0.0089 nM

B7: g327 (peptide)
peptide: HSQGTFTSDYSKYLDSRRAQDFVQWLVAGGGGGGK([γGlu-Palmitoyl])-NH2
modifications: N-terminus assumed
SMILES: CCCCCCCCCCCCCCCC(=O)N[C@@H](CCC(=O)NCCCC[C@H](NC(=O)CNC(=O)CNC(=O)CNC(=O)CNC(=O)CNC(=O)CNC(=O)[C@H](C)NC(=O)[C@@H](NC(=O)[C@H](CC(C)C)NC(=O)[C@H](Cc1c[nH]c2ccccc12)NC(=O)[C@H](CCC(N)=O)NC(=O)[C@@H](NC(=O)[C@H](Cc1ccccc1)NC(=O)[C@H](CC(=O)O)NC(=O)[C@H](CCC(N)=O)NC(=O)[C@H](C)NC(=O)[C@H](CCCNC(=N)N)NC(=O)[C@H](CCCNC(=N)N)NC(=O)[C@H](CO)NC(=O)[C@H](CC(=O)O)NC(=O)[C@H](CC(C)C)NC(=O)[C@H](Cc1ccc(O)cc1)NC(=O)[C@H](CCCCN)NC(=O)[C@H](CO)NC(=O)[C@H](Cc1ccc(O)cc1)NC(=O)[C@H](CC(=O)O)NC(=O)[C@H](CO)NC(=O)[C@@H](NC(=O)[C@H](Cc1ccccc1)NC(=O)[C@@H](NC(=O)CNC(=O)[C@H](CCC(N)=O)NC(=O)[C@H](CO)NC(=O)[C@@H](N)Cc1c[nH]cn1)[C@@H](C)O)[C@@H](C)O)C(C)C)C(C)C)C(N)=O)C(=O)O
cAMP EC50 (assay 1) (human GLP-1 receptor [2]): 0.0193 nM
cAMP EC50 (assay 1) [6]: 12.8 nM
cAMP EC50 (assay 1) (human glucagon receptor [7]): 0.00232 nM

B8: g321 (peptide)
peptide: HSQGTFTSDYSKYLDSRRAQDFVQWLVAGGKNNRNNIAK-NH2
cAMP EC50 (assay 1) (human GLP-1 receptor [2]): 0.0272 nM
cAMP EC50 (assay 1) [6]: 6.41 nM
cAMP EC50 (assay 1) (human glucagon receptor [7]): 0.0279 nM

B9: g322 (peptide)
peptide: HSQGTFTSDYSKYLDSRRAQDFVQWLVAGGKNNRNNIAK(Palmitoyl)-NH2
modifications: N-terminus assumed
SMILES: CCCCCCCCCCCCCCCC(=O)NCCCC[C@H](NC(=O)[C@H](C)NC(=O)[C@@H](NC(=O)[C@H](CC(N)=O)NC(=O)[C@H](CC(N)=O)NC(=O)[C@H](CCCNC(=N)N)NC(=O)[C@H](CC(N)=O)NC(=O)[C@H](CC(N)=O)NC(=O)[C@H](CCCCN)NC(=O)CNC(=O)CNC(=O)[C@H](C)NC(=O)[C@@H](NC(=O)[C@H](CC(C)C)NC(=O)[C@H](Cc1c[nH]c2ccccc12)NC(=O)[C@H](CCC(N)=O)NC(=O)[C@@H](NC(=O)[C@H](Cc1ccccc1)NC(=O)[C@H](CC(=O)O)NC(=O)[C@H](CCC(N)=O)NC(=O)[C@H](C)NC(=O)[C@H](CCCNC(=N)N)NC(=O)[C@H](CCCNC(=N)N)NC(=O)[C@H](CO)NC(=O)[C@H](CC(=O)O)NC(=O)[C@H](CC(C)C)NC(=O)[C@H](Cc1ccc(O)cc1)NC(=O)[C@H](CCCCN)NC(=O)[C@H](CO)NC(=O)[C@H](Cc1ccc(O)cc1)NC(=O)[C@H](CC(=O)O)NC(=O)[C@H](CO)NC(=O)[C@@H](NC(=O)[C@H](Cc1ccccc1)NC(=O)[C@@H](NC(=O)CNC(=O)[C@H](CCC(N)=O)NC(=O)[C@H](CO)NC(=O)[C@@H](N)Cc1c[nH]cn1)[C@@H](C)O)[C@@H](C)O)C(C)C)C(C)C)[C@@H](C)CC)C(N)=O
cAMP EC50 (assay 1) (human GLP-1 receptor [2]): 0.0106 nM
cAMP EC50 (assay 1) [6]: 1.72 nM
cAMP EC50 (assay 1) (human glucagon receptor [7]): 0.00355 nM

B10: G812 (peptide)
peptide: HSQGTFTSDKSKYLEGQAAKEFIAWLEKGR
modifications: X10 = K(gE-palm); C-terminal amide
cAMP EC50 (assay 2, 3.2% mouse serum albumin) (mouse GLP-1 receptor): 0.13 nM
